B1: human IL-17D (biotinylated) (ligand, UniProt Q8TAD2 18-202, looked up)
chain: APRAGRRPARPRGCADRPEELLEQLYGRLAAGVLSAFHHTLQLGPREQARNASCPAGGRPADRRFRPPTNLRSVSPWAYRISYDPARYPRYLPEAYCLCRGCLTGLFGEEDVRFRSAPVYMPTVVLRRTPACAGGRSVYTEAYVTIPVGCTCVPEPEKDADSINSSIDKQGAKLLLGPNDAPAGP
modifications: biotin label (sites not given)
B2: murine IL-17C (ligand)
chain: DPPSWGKPRSHRTLRCYSAEELSHGQAPPHLLTRSARWEQALPVALVASLEATGHRRQHEGPLAGTQCPVLRPEEVLEADTHERSISPWRYRIDTDENRYPQKLAVAECLCRGCINAKTGRETAALNSVQLLQSLLVLRRQPCSRDGTADPTPGSFAFHTEFIRVPVGCTCVLPRSTQ
modifications: biotin label in the binding assays (sites not given); unlabelled in the signalling assays
notes: also called mouse IL-17C; IL-17CmCH6
B3: human IL-17B (biotinylated) (ligand, UniProt Q9UHF5 21-180, looked up)
chain: QPRSPKSKRKGQGRPGPLAPGPHQVPLDLVSRMKPYARMEEYERNIEEMVAQLRNSSELAQRKCEVNLQLWMSNKRSLSPWGYSINHDPSRIPVDLPEARCLCLGCVNPFTMQEDRSMVSVPVFSQVPVRRRLCPPPPRTGPCRQRAVMETIAVGCTCIF
modifications: biotin label (sites not given)
B4: human IL-17F (biotinylated) (ligand, UniProt Q96PD4 31-163, looked up)
chain: RKIPKVGHTFFQKPESCPPVPGGSMKLDIGIINENQRVSMSRNIESRSTSPWNYTVTWDPNRYPSEVVQAQCRNLGCINAQGKEDISMNSVPIQQETLVVRRKHQGCSVSFQLEKVLVTVGCTCVTPVIHHVQ
modifications: biotin label (sites not given)

Key:
[1] = molecular target: T1, human ZcytoR21x2 (human, UniProt Q8NFR9 24-667); assay: flow cytometry, biotinylated ligand + streptavidin-PE on stably transfected BHK cells
T1 construct: also called hcytor21x2
T1 sequence: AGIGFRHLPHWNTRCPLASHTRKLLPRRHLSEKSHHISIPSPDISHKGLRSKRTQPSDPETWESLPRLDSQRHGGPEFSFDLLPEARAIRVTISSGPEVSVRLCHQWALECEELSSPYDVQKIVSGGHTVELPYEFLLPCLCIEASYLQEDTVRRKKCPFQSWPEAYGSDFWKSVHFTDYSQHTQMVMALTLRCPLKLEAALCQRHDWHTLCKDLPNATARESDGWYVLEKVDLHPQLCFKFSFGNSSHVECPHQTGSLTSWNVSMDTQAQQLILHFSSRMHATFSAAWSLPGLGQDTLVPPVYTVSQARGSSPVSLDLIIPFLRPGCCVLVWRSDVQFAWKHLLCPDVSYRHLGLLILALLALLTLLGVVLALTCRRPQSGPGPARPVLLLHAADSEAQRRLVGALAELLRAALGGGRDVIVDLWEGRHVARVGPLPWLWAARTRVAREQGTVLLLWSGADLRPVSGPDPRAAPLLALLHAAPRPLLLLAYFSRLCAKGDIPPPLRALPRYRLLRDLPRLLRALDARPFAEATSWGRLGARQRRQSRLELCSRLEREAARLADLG

[2] = molecular target: T2, human ZcytoR21x1 (human, UniProt Q8NFR9 24-667); assay: as above
T2 construct: also called hcytor21x1; IL-17RE
T2 sequence: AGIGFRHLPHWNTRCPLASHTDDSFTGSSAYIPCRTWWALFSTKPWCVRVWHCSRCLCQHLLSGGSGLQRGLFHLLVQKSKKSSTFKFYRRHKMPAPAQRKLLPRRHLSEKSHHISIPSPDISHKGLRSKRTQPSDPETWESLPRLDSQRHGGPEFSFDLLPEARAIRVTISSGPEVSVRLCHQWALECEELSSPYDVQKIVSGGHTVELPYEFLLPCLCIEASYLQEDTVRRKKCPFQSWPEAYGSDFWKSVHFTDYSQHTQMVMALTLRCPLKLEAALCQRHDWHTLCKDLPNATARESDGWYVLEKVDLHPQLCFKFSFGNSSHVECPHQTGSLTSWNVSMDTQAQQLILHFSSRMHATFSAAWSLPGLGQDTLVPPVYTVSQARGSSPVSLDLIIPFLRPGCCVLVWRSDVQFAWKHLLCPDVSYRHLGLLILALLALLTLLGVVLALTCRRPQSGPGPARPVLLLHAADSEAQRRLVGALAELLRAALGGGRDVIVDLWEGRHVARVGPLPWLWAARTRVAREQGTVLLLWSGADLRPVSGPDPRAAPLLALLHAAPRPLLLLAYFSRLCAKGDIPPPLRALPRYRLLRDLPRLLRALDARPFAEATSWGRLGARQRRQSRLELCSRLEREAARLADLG

[3] = molecular target: T3, murine ZcytoR21x6 (mouse, UniProt Q8BH06 24-637); assay: flow cytometry, biotinylated IL-17C (1 ug/ml) + streptavidin-PE on stably transfected BHK cells
T3 construct: also called mouse ZcytoR21x6; mcytor21x6
T3 sequence: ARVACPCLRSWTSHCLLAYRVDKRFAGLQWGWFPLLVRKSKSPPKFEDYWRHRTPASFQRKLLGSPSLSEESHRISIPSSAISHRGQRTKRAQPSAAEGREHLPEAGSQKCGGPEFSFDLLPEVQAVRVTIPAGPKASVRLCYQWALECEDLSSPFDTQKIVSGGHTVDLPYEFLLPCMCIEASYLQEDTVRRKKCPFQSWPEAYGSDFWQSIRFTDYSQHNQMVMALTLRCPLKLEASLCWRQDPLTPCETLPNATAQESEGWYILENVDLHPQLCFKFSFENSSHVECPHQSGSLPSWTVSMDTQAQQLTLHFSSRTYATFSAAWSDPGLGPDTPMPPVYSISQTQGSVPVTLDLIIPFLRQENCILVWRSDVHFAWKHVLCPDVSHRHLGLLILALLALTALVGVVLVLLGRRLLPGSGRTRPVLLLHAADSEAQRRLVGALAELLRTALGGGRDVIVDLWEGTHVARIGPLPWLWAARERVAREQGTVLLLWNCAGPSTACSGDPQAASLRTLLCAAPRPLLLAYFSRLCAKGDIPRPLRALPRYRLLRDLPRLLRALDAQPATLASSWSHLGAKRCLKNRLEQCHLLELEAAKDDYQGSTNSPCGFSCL
Experimental: (§1) BHK cells stably transfected with human and mouse ZcytoR21 splice variants were plated and grown to confluency in T-75 flasks. Cells were lifted off using a non-protease reagent such as Versene (Invitrogen 15040-066), pelleted, and resuspended in a staining reagent (HBSS+1% BSA+0.1% NaAzide+10 mM HEPES) at 2×10e7 cells/ml and aliquoted to a 96-well Costar plate. IL-17C that has been labeled with biotin was independently added to cells at a concentration of 1 ug/ml. The cell/ligand mixture can be incubated for 1 hr at 4 degrees. The wells were washed 1× in staining reagent, and incubated in a secondary reagent containing staining reagent plus Streptavidin-PE (BD Pharmingen 554061) at a 1:100 ratio. The wells were incubated at 4° C. in the dark for 1 hr, followed by a 2× wash in staining media. The cells were then resuspended in a 1:1 mixture of staining media and Cytofix (BD Bioscience 554655) and incubated 10 minutes at RT. The cells were analysed by Flow Cytometry and by gating on the PE positive events for cells that bound IL-17C.

[4] = molecular target: T4, human ZcytoR21x13 (human, UniProt Q8NFR9 24-667); assay: as above
T4 construct: also called hcytor21x13
T4 sequence: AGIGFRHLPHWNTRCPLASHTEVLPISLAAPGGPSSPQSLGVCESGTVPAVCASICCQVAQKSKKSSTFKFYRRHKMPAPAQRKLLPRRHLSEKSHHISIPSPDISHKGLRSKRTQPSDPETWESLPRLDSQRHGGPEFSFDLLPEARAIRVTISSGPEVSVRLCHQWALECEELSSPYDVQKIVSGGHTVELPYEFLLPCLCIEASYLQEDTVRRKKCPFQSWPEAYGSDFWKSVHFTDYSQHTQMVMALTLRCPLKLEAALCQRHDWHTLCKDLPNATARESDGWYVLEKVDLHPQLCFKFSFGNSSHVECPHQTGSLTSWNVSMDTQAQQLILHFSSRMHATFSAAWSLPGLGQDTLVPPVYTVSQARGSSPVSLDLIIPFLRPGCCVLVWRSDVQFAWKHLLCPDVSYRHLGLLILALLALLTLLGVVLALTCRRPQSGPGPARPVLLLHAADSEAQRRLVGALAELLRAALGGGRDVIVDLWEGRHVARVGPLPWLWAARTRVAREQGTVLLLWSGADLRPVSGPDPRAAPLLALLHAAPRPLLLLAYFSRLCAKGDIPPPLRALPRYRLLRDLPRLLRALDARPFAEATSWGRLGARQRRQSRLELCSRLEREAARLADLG
Experimental: as §1

[5] = molecular target: T1, human ZcytoR21x2; assay: as above
Experimental: as §1

[6] = molecular target: T2, human ZcytoR21x1; assay: as above
Experimental: as §1

[7] = molecular target: T5, human ZcytoR21x6 (human, UniProt Q8NFR9 24-667); assay: as above
T5 construct: also called hcytor21x6
T5 sequence: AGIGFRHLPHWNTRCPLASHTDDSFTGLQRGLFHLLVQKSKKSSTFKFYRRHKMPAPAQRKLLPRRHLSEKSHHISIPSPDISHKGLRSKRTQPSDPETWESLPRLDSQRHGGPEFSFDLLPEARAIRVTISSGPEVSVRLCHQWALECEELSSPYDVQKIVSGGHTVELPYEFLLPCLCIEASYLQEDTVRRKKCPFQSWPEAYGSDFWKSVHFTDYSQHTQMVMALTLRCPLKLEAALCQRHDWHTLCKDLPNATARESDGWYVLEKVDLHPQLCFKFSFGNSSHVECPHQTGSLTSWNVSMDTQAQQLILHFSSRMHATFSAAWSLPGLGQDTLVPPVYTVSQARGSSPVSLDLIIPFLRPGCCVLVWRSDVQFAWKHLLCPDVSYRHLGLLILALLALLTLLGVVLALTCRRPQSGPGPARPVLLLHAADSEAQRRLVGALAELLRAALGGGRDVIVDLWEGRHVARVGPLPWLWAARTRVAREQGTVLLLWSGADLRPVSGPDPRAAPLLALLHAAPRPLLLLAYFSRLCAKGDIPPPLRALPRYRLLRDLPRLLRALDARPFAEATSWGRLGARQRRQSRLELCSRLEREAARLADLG
Experimental: as §1

Binder | binding result [1] | binding result [2] | binding result [3] | binding result [4] | binding result [5] | binding result [6] | binding result [7]
B1 | no binding | no binding | – | – | – | – | –
B2 | – | – | binds | binds | binds | binds | binds
B3 | no binding | no binding | – | – | – | – | –
B4 | no binding | no binding | – | – | – | – | –

Source: patent publication US20060142192A1 (ZymoGenetics, published 2006)
